Assay results published in the supplement of paper PMC12783771.
± gives the standard deviation of the averaged measurements.

B1: library; a variant is named by its letters at X, in order (parent)
chain: MNIQIGELAKRTACPVVTIRFYEQEGLLPPPGRSRGNFRLYGEEHVERLQFIRHCRSLDMPLSXVRTLLSYRKRPDQDCGEVXMLLDEHIRQVESRIGALLELXHHXVELREACSGARPAQSCGILQXLSXCVCXTRGTTAHXSD

Experiments:
[1] = variants of: B1; assay: sfGFP reporter fluorescence (15 h) (µM FITC); higher = higher leak; settings: library round: Round 3; ligand: none
Experimental: (§1)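 Cell-free biosensing: 1 µL Echo-assembled CFE reactions with linear PbrR variant templates (5 nM) and pPbrR-sfGFP reporter, with 1 µM Pb, 30 µM Zn or no ligand; endpoint sfGFP fluorescence after 15 h at 30 °C calibrated as µM FITC. Round 3 ML-predicted PbrR mutants; up to 3 biological replicates.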

[2] = variants of: B1; assay: sfGFP reporter fluorescence (15 h) (µM FITC); higher = stronger transcriptional activation; settings: library round: Round 3
Experimental: as §1

Variant	sfGFP reporter fluorescence [1]	sfGFP reporter fluorescence ([2]; ligand: 1 µM Pb)	sfGFP reporter fluorescence ([2]; ligand: 30 µM Zn)
DNKCGADY G124A	0.267 ± 0.013	1.31 ± 0.084	2.05 ± 0.041
DNKLHAPW L101V	0.06686 ± 0.00034	0.307 ± 0.028	1.11 ± 0.06
LILCGAAC V16C H54C C55P E81A H106A	0.0437 ± 0.0031	0.0414 ± 0.0022	0.0463 ± 0.0019
KNKCSDDP M60L P61N	2.09 ± 0.17	3.3 ± 0.17	3.18 ± 0.21
DNKCMDAK G124A	0.531 ± 0.049	2.11 ± 0.15	2.65 ± 0.21
DNVCMDDP V16C P61N	0.092 ± 0.0024	0.45 ± 0.015	0.463 ± 0.01
KNRCMDDP P61N	2.26 ± 0.13	2.97 ± 0.17	2.85 ± 0.064
KITLGDDR H106A	0.046 ± 0.001	0.452 ± 0.026	0.0503 ± 0.0012
KNKCTDDP M60L P61N	2.34 ± 0.2	3.48 ± 0.11	3.2 ± 0.18
DNRCIDAK	0.674 ± 0.12	1.93 ± 0.22	2.51 ± 0.34
DNRCMDAK	1.49 ± 0.11	2.51 ± 0.053	2.61 ± 0.05
LNKCGAAP H54C C55P H106L	0.0467 ± 0.0041	0.044 ± 0.0032	0.0477 ± 0.0034
DSKLGAPW	0.043 ± 0.0014	0.138 ± 0.012	0.227 ± 0.025
KNVCMDDP M60L P61N	0.987 ± 0.13	2.86 ± 0.2	2.86 ± 0.26
ENKCMDAK	0.33 ± 0.045	1.43 ± 0.15	2.44 ± 0.15
LIVCGAAP V16C H54C C55P H106L	0.0465 ± 0.0015	0.0427 ± 0.0018	0.0473 ± 0.0049
LIVCGAAP V16C H54C C55P H106A	0.0452 ± 0.0017	0.0428 ± 0.0019	0.0456 ± 0.0037
KNKCIDDP M60L P61N	1.99 ± 0.26	3.23 ± 0.31	2.88 ± 0.25
KNVCMDDP M60L	3.21 ± 0.26	3.58 ± 0.098	3.18 ± 0.16
DNRLGAPL	0.0656 ± 0.0041	0.262 ± 0.0096	0.905 ± 0.11
KFVLGDDR H106N	0.0633 ± 0.0012	1.16 ± 0.054	0.2633 ± 0.0014
LILCGAAP V16C H54C C55P H106A	0.0465 ± 0.0014	0.0436 ± 0.0014	0.0502 ± 0.002
KFVLGDDT H106A	0.0446 ± 0.0026	0.549 ± 0.023	0.095 ± 0.0055
